Tests used:
[1] = biological target: T1, human TNFα in complex with compound (15) (human, UniProt P01375 77-233); test: SPR (BIAcore T200), against apo human TNFα
T1 construct: also called Human TNFα + compound 15; Human TNFα + compound (15)

[2] = biological target: T2, human TNFα in complex with compound (39) (human, UniProt P01375 77-233); test: SPR (BIAcore T200), against apo human TNFα
T2 construct: also called Human TNFα + compound (39); compound-distorted human TNFα
T2 sequence (P01375 77-233 limits assumed, one chain of several): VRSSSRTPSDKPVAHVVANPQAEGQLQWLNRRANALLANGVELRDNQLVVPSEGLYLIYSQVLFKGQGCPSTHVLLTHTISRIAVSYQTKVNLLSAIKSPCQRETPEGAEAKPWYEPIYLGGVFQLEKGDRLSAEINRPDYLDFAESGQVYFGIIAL

T1 sequence (P01375 77-233 limits assumed, one chain of several): as above

- selective binding over apo human TNFα (log) [1]: > 2 log
- selective binding over apo human TNFα (log) [2]: > 2 log
B1: CA185_01979 (antibody, mouse IgG1, kappa, V domains shown)
VH: EVHLVESGPGLVKPSQSLSLTCSVTGYSITNSYWDWIRKFPGNKMEWMGYINYSGSTGYNPSLKSRISISRDTSNNQFFLQLNSITTEDTATYYCARGTYGYNAYHFDYWGRGVMVTVSS
VL: DIQMTQSPASLSASLEEIVTITCQASQDIGNWLSWYQQKPGKSPHLLIYGTTSLADGVPSRFSGSRSGTQYSLKISGLQVADIGIYVCLQAYSTPFTFGSGTKLEIKR
notes: also called CA185_01979.0; CA185_1979
